Test results taken from patent US20240391984A1.
Residue numbers refer to the chain shown, from its start. In names and notes the source's numbering stands.

B1: pAM246 (Protein L C3b domain; N10H, N45H, N60Q) (designed binder)
chain: PKEEVTIKVHLIFADGKIQTAEFKGTFEEATAKAYAYADLLAKEHGEYTADLEDGGYTIQIKFAGKETPETPEE
B2: pAM245 (Protein L C3 domain; H, H, Q at positions 10, 45, 60) (designed binder)
chain: B1 chain with D39N, Y57N
B3: pAM114 (wt B3 domain of Protein L) (protein)
chain: PKEEVTIKANLIYADGKTQTAEFKGTFEEATAEAYRYADLLAKENGKYTVDVADKGYTLNIKFAGKEKTPEE
B4: pAM125 (B3 domain of Protein L; pos 10 Q, pos 45 H, pos 60 N) (designed binder)
chain: B3 chain with N10Q, N45H
B5: pAM122 (B3 domain of Protein L; pos 10 N, pos 45 H, pos 60 Y) (designed binder)
chain: B3 chain with N45H, N60Y
B6: pAM140 (B3 domain of Protein L; pos 10 Y, pos 45 H, pos 60 Y) (designed binder)
chain: B3 chain with N10Y, N45H, N60Y
B7: pAM132 (B3 domain of Protein L; pos 10 Y, pos 45 N, pos 60 N) (designed binder)
chain: B3 chain with N10Y
B8: pAM261 (Protein L C4 domain; N10H, N45H, N60Y) (designed binder)
chain: PKEEVTIKVHLIFADGKTQTAEFKGTFEEATAEAYRYADLLAKVHGEYTADLEDGGYTIYIKFAGKEQPGENPG
B9: pAM258 (Protein L C2b domain; N10H, N45H, N60Y) (designed binder)
chain: B1 chain with I18T, Q60Y
B10: pAM262 (D1 domain; N10H, N45H, N60Y) (designed binder)
chain: PKEEVTIKAHLIFADGKTQTAEFKGTFEEATAEAYRYADLLAKVHGEYTADLEDGGYTIYIKFAGKEQPGEN
B11: pAM244 (Protein L C2b domain; N10H, N45H, N60Q) (designed binder)
chain: B1 chain with I18T
B12: pAM260 (Protein L C3b domain; N10H, N45H, N60Y) (designed binder)
chain: B1 chain with Q60Y
B13: pAM253 (Protein L B4 domain; N10H, N45H, N60Y) (designed binder)
chain: PKEEVTIKAHLIYADGKTQTAEFKGTFAEATAEAYRYADLLAKEHGKYTADLEDGGYTIYIRFAGKKVDEKPEE
B14: pAM251 (Protein L B2 domain; N10H, N45H, N60Y) (designed binder)
chain: B3 chain with N10H, T31A, L40A, A42K, E44D, N45H, K47E, N60Y
B15: pAM248 (D1 domain; N10H, N45H, N60Q) (designed binder)
chain: B10 chain with Y60Q
B16: pAM239 (Protein L B4 domain; N10H, N45H, N60Q) (designed binder)
chain: B13 chain with Y60Q
B17: pAM252 (Protein L B3 domain; N10H, N45H, N60Y) (designed binder)
chain: B3 chain with N10H, N45H, N60Y
B18: pAM237 (Protein L B2 domain; N10H, N45H, N60Q) (designed binder)
chain: B3 chain with N10H, T31A, L40A, A42K, E44D, N45H, K47E, N60Q
B19: pAM240 (Protein L B5b domain; H, H, Q at positions 10, 45, 60) (designed binder)
chain: KEQVTIKEHIYFEDGTVQTATFKGTFAEATAEAYRYADLLSKEHGKYTADLEDGGYTIQIRFAGKEEPEE
B20: pAM249 (Protein L B1 domain; N10H, N45H, N60Y) (designed binder)
chain: SEEEVTIKAHLIFANGSTQTAEFKGTFEKATSEAYAYADTLKKDHGEYTVDVADKGYTLYIKFAGKEKTPEE
B21: pAM238 (Protein L B3 domain; N10H, N45H, N60Q) (designed binder)
chain: B3 chain with N10H, N45H, N60Q
B22: pAM243 (Protein L C2 domain; H, H, Q at positions 10, 45, 60) (designed binder)
chain: B1 chain with I18T, Y57N
B23: pAM257 (Protein L C2 domain; H, H, Y at positions 10, 45, 60) (designed binder)
chain: B1 chain with I18T, Y57N, Q60Y
B24: pAM235 (Protein L B1 domain; N10H, N45H, N60Q) (designed binder)
chain: B20 chain with Y60Q
B25: pAM259 (Protein L C3 domain; H, H, Y at positions 10, 45, 60) (designed binder)
chain: B1 chain with D39N, Y57N, Q60Y
B26: pAM241 (Protein L C1 domain; H, H, Q at positions 10, 45, 60) (designed binder)
chain: PEEEVTIKAHLIFADGSTQNAEFKGTFAKAVSDAYAYADALKKDHGEYTVDVADKGLTLQIKFAGKKEKPEE
B27: pAM255 (Protein L C1 domain; H, H, Y at positions 10, 45, 60) (designed binder)
chain: B26 chain with Q60Y
B28: pAM247 (Protein L C4 domain; N10H, N45H, N60Q) (designed binder)
chain: B8 chain with Y60Q
B29: pAM254 (Protein L B5b domain; H, H, Y at positions 10, 45, 60) (designed binder)
chain: B19 chain with Q59Y

The binders below were run against polyclonal IgG (Gammanorm, Octapharma, Sweden) (assay: SPR (Biacore 8K+), 1:1 kinetic fit; summary table, differs from Table 10).

Q: B1 was tested. Which Kd did it give?
A: 15 nM

Q: For B2, which Kd is on record?
A: 54 nM

Each binder was assayed against polyclonal IgG (Gammanorm, Octapharma, Sweden) (assay: SPR (Biacore 8K+), steady state fit; summary table, differs from Table 10).

Q: With B1 as the binder, how does the Kd read?
A: 47 nM

Q: Which Kd does the source give for B2 here?
A: 118 nM

The binders below were run against polyclonal IgG (Gammanorm, Octapharma, Sweden) (assay: SPR (Biacore 8K+), variant amine-coupled to CM5, Gammanorm as analyte, 1:1 kinetic fit).

Q: With B3 as the binder, how does the Kd read?
A: 12 nM

Q: B4 was tested. Which Kd did it give?
A: 15 nM

Q: With B5 as the binder, how does the Kd read?
A: 25 nM

Q: With B6 as the binder, how does the Kd read?
A: 27 nM

Q: Which Kd does the source give for B7 here?
A: 15 nM

Biological target: polyclonal IgG (Gammanorm, Octapharma, Sweden)
Test: as above
Remark: another data set of the same source

Q: Which Kd does the source give for B3 here?
A: 11 nM

Q: For B8, which Kd is on record?
A: 12 nM

Q: B9 was tested. Which Kd did it give?
A: 17 nM

Q: B10 was tested. Which Kd did it give?
A: 11 nM

Q: How did the Kd turn out when B1 was run?
A: 17 nM

Q: B11 was tested. Which Kd did it give?
A: 18 nM

Q: Which Kd does the source give for B12 here?
A: 18 nM

Q: Which Kd does the source give for B13 here?
A: 14 nM

Q: For B14, which Kd is on record?
A: 20 nM

Q: For B15, which Kd is on record?
A: 16 nM

Q: How did the Kd turn out when B16 was run?
A: 17 nM

Q: Which Kd does the source give for B17 here?
A: 16 nM

Q: How did the Kd turn out when B18 was run?
A: 27 nM

Q: With B19 as the binder, how does the Kd read?
A: 15 nM

Q: B20 was tested. Which Kd did it give?
A: 29 nM

Q: How did the Kd turn out when B21 was run?
A: 25 nM

Q: Which Kd does the source give for B22 here?
A: 39 nM

Q: How did the Kd turn out when B23 was run?
A: 47 nM

Q: For B24, which Kd is on record?
A: 42 nM

Q: Which Kd does the source give for B25 here?
A: 55 nM

Q: Which Kd does the source give for B2 here?
A: 65 nM

Q: How did the Kd turn out when B26 was run?
A: 87 nM

Q: How did the Kd turn out when B27 was run?
A: 146 nM

Q: Which Kd does the source give for B28 here?
A: 9 nM

Q: Which Kd does the source give for B29 here?
A: 7 nM

The binders below were run against polyclonal IgG (Gammanorm, Octapharma, Sweden) (assay: SPR (Biacore 8K+), variant amine-coupled to CM5, Gammanorm as analyte, steady state fit).

Q: For B3, which Kd is on record?
A: 45 nM

Q: B4 was tested. Which Kd did it give?
A: 50 nM

Q: How did the Kd turn out when B5 was run?
A: 89 nM

Q: Which Kd does the source give for B6 here?
A: 96 nM

Q: For B7, which Kd is on record?
A: 50 nM

Biological target: polyclonal IgG (Gammanorm, Octapharma, Sweden)
Test: as above
Remark: another data set of the same source

Q: For B3, which Kd is on record?
A: 46 nM

Q: Which Kd does the source give for B8 here?
A: 43 nM

Q: B9 was tested. Which Kd did it give?
A: 45 nM

Q: Which Kd does the source give for B10 here?
A: 48 nM

Q: With B1 as the binder, how does the Kd read?
A: 49 nM

Q: How did the Kd turn out when B11 was run?
A: 50 nM

Q: How did the Kd turn out when B12 was run?
A: 51 nM

Q: For B13, which Kd is on record?
A: 54 nM

Q: B14 was tested. Which Kd did it give?
A: 55 nM

Q: With B15 as the binder, how does the Kd read?
A: 56 nM

Q: For B16, which Kd is on record?
A: 60 nM

Q: B17 was tested. Which Kd did it give?
A: 69 nM

Q: With B18 as the binder, how does the Kd read?
A: 72 nM

Q: B19 was tested. Which Kd did it give?
A: 79 nM

Q: B20 was tested. Which Kd did it give?
A: 79 nM

Q: B21 was tested. Which Kd did it give?
A: 82 nM

Q: Which Kd does the source give for B22 here?
A: 83 nM

Q: How did the Kd turn out when B23 was run?
A: 98 nM

Q: How did the Kd turn out when B24 was run?
A: 101 nM

Q: B25 was tested. Which Kd did it give?
A: 120 nM

Q: Which Kd does the source give for B2 here?
A: 134 nM

Q: Which Kd does the source give for B26 here?
A: 187 nM

Q: With B27 as the binder, how does the Kd read?
A: 324 nM

Q: Which Kd does the source give for B28 here?
A: 38 nM

Q: Which Kd does the source give for B29 here?
A: 41 nM
